Target: t-PA (Homo sapiens, UniProt P00750)
Test: SPR

t-PA, sequence (P00750 36-562): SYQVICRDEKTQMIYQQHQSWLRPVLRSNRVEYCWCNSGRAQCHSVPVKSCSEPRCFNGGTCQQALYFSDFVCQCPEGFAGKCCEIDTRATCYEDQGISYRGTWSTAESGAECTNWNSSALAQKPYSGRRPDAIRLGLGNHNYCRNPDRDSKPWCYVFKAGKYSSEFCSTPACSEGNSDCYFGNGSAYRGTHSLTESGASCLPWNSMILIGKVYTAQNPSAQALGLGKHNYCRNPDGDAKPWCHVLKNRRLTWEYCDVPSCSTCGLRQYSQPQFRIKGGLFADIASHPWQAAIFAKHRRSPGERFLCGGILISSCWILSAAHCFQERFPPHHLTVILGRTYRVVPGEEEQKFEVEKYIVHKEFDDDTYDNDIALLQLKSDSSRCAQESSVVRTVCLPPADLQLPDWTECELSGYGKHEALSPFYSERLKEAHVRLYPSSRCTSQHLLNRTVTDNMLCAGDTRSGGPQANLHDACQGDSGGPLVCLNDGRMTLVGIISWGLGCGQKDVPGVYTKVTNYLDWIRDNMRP

Kd: 20 nM
B1: β2-glycoprotein I (protein)
chain: GRTCPKPDDLPFSTVVPLKTFYEPGEEITYSCKPGYVSRGGMRKFICPLTGLWPINTLKCTPRVCPFAGILENGAVRYTTFEYPNTISFSCNTGFYLNGADSAKCTEEGKWSPELPVCAPIICPPPSIPTFATLRVYKPSAGNNSLYRDTAVFECLPQHAMFGNDTITCTTHGNWTKLPECREVKCPFPSRPDNGFVNYPAKPTLYYKDKATFGCHDGYSLDGPEEIECTKLGNWSAMPSCKASCKVPVKKATVVYQGERVKIQEKFKNGMLHGDKVSFFCKNKEKKCSYTEDAQCIDGTIEVPKCFKEHSSLAFWKTDASDVKPC

From article PMC2965030 (2009)
